Consider 1 molecule from patent US8440804B2, “Polypeptides having modulatory effects on cells” (Ecole Normale Superieure de Lyon, priority 2006, dated 2013).

The subject of assay [1] is CNA gamma C-terminal fragment. In words: Yeast two-hybrid assays of R5G42 mutants. It is filed as binding, human. To be noted: plasmids pSH18-34, pJK103, pRB18-40. Here is the method:
The capacity of R5G42 mutants having a one amino acid change as compared to R5G42 to bind CNA beta and gamma C-Terminal fragments (FIG. 3b) and NS5A-TP2 was tested in yeast two-hybrid assays. CNA beta and gamma C-Terminal fragments and NS5A-TP2 were cloned in three different vectors (pSH18-34, pJK103 and pRB18-40). These three plasmids differ from each other in the level of sensitivity of their promoter, pSH18-34 having the highest sensitivity and pRB18-40 having the lowest.
The inventors explored the ability of R5G42 mutants having a one amino acid change as compared to R5G42, to bind to CNA beta and gamma C-Terminal fragments (FIG. 3b) and to NS5A-TP2. To this end, they proceeded to yeast-two hybrid assays as in example 3. CNA beta and gamma C-Terminal fragments (FIG. 3b) and NS5A-TP2 were cloned in three different plasmids (pSH18-34, pJK103 and pRB18-40), which differed from each other in the level of sensitivity of their promoter to the bait/prey complex formation, pSH18-34 having the highest sensitivity and pRB18-40 having the lowest.

The subject of assay [2] is Raw1 cells (osteoclasts precursors). The experiment in a line: Raw cell differentiation assay (osteoclast differentiation). It is filed as cell-based. The settings on record: 4 days post-transfection, absence of RANKL. An excerpt: Trx, CNA* and Peptide aptamers R5G42, C2, C7, C8 and N9 were transfected into RAW1 cells and left for four days in absence of the normal differentiation factor RANKL. CNA* is activated calcineurin A which elicits a robust differentiation response.
The inventors assessed the ability of some CNA-specific peptide aptamers to promote osteoclast differentiation via the activation of CNA. […] The differentiation state was then observed 4 days post-transfection.
Raw1 cells were transfected with the following plasmids: pCI-HA-Trx (negative control), pCI-HA CNA* (positive control for differentiation activation), pCI-HA R5G42, pCI-HA R5G42-C2, pCI-HA R5G42-C7, pCI-HA R5G42-C8 and pCI-HA R5G42-N9. The sequence of CNA* is the same as that of CNA8 (see FIG. 17, SEQ ID 42). The sequences of the R5G42 (SEQ ID 22), C2 (SEQ ID 23), C7 (SEQ ID 27), C8 (SEQ ID 28) and N9 (SEQ ID 33) aptamers is shown on FIG. 8.
One day before the transfection, Raw I cells were plated in 6-well dishes at 50 cell/mm^2. Transfection was performed with FuGene 6 Reagent (Roche) using 2 μg of each plasmid and following supplier recommendations.
8 h after transfection D-MEM was changed with α-MEM. In the control dishes α-MEM+50 ng/ml RANKL was added. After 2 days, medium was changed with a fresh medium. The differentiation state was then observed 4 days post-transfection.

In assay [3] the test system is tibialis anterior muscle atrophy. In words: In vivo tibia muscles denervation assay. To be noted: mice, plasmid electroporation in hind legs, 14 days post-denervation. Here is the method:
Vectors containing TRX, the R5G42, C7 or N9 aptamers or NaCl (control) were electroporated in mice hind legs (day 1) and an unilateral abolition of the motor innervation of the tibia muscles of the left hind leg was performed (day 3). After euthanasia of the mice (day 17) the tibialis anterior area was measured. Without denervation, the muscle area is relatively stable from one experiment to another (6.532.412+/−351.070, or 5.3% of variation). With denervation a reduced atrophy effect of about 27% and 48% is observed with aptamers R5G42 and N9 as compared to the atrophy effect obtained using the NaCl control (See FIGS. 19-20). The 100% of atrophy effect was evaluated using the data obtained with the NaCl control.
Another group of mice hind legs were electroporated after the injection of vectors containing TRX, the R5G42, C7 or N9 aptamers or with NaCl (control) at day 1. A unilateral abolition of the motor innervation of the tibia muscles of the left hind leg was performed at day 3 in order to induce a muscular atrophy. The mice were then euthanised at day 17, i.e. 14 days after sciatic denervation of the left hind leg. […] With denervation a reduced atrophy effect of about 27% and 48% is observed with aptamers R5G42 and N9 as compared to the atrophy effect obtained using the NaCl control (FIG. 18). […]

Sequence of CNA gamma C-terminal fragment (P48454 386-512 limits assumed): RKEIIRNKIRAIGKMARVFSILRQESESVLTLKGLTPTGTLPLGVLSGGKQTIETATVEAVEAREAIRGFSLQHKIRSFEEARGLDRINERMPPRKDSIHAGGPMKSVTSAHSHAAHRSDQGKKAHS

B1: N9: R5G42 mutant having a one amino acid change (SEQ ID 33) (protein)
chain: MVKQIESKTAFQEALDAAGDKLVVVDFSAAWCGPSAVTFAVCALGPCKMIKPFFHSLSEKYSNVIFLEVDVDDCQDVASECEVKCMPTFQFFKKGQKVGEFSGANKEKLEATINELV
modifications: Aptamer R5G42 mutant N9
As to B1, the yeast two-hybrid interaction entry in assay [1] is “not with the CNA beta and gamma C-terminal fragments”. In addition, the osteoclast differentiation entry in assay [2] is reported as “no osteoclasts fully differentiated were detectable”. Moreover, in assay [3], the “reduced atrophy effect as compared to the NaCl control (tibialis anterior area)” value is on record as ~48%.
